Experimental data published in the RNAGym collection of RNA variant scans (doi:10.1073/pnas.2313332121).
This sample holds only a part of the variants without activity.

B1: TPR 5TU (parent)
chain: GGAUCUUCUCGAUCUAACAAAAAAGACAAAUCUGCCACAAAGCUUGAGAGCAUCUUCGGAUGCAGAGGCGGCAGCCUUCGGUGGCGCGAUAGCGCCAACGUUCUCAACUAUGACACGCAAAACGCGUGCUCCGUUGAAUGGAGUUUAUCAUG

Variants of: B1
Experiment: polymerase ribozyme fitness, log enrichment relative to wild type (log ratio); higher = more active; in vitro selection for triplet polymerase activity
How it was run: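 Fitness measures genotype enrichment against wild-type enrichment on a logarithmic scale, with inverse-variance-weighted averaging of replicates. The logarithm is base 2, and genotypes were kept only with ≥10 input reads and ≥1 read per output in Illumina sequencing. The sequenced libraries came from one triplicate in vitro selection round, including frozen incubation at −7 °C, of PCR-built, transcribed mutant libraries of each subunit of a heterodimeric triplet polymerase ribozyme.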

Row | Variant | polymerase ribozyme fitness (log ratio)
1 | C35U C79A G81U C93A U102A U127A | ≤ -4.2
2 | C35A C79G U151A | ≤ -4.2
3 | C35G C85A C105G A113U | ≤ -4.2
4 | C35U C38G U56A | -1.43
5 | C35A A39G G141U | ≤ -4.2
6 | C35A C76A C93U A113U U130G A147G | ≤ -4.2
7 | C35U A52C C123U | -1.31
8 | G34A G140A | -3.88
9 | C36A C75U C95A C129G | ≤ -4.2
10 | C36A A64U A107U U139A G140C | ≤ -4.2
11 | G34C G58A U77A U82G G86A C105A U127A G141C | ≤ -4.2
12 | C36A A73U G92U U134G G143U | -4.13
13 | C36A A122U G126A G136C | ≤ -4.2
14 | C35A G58U | -2.81
15 | G34A C36A A137G | ≤ -4.2
16 | C35U U55G A91G A106G G141A | ≤ -4.2
17 | C35A C95A A107G G143U | -3.95
18 | C35U C116A | -0.104
19 | C35U C75A G86A A107G G140U | ≤ -4.2
20 | G34A U55A C69A C76U G80C C87G A89C A107C C116U | ≤ -4.2
21 | C35U G86U | -1.43
22 | C36A A98U A107U C131A U146G | ≤ -4.2
23 | C35G C87U C118U | -4.18
24 | C35U A49G G70A C95G C105A | ≤ -4.2

Row | Variant | polymerase ribozyme fitness (log ratio)
25 | C35U G50U U56A G68A C85U A137C | ≤ -4.2
26 | C35A G50U C69A G74A | ≤ -4.2
27 | C35G A91C C118G C123A | ≤ -4.2
28 | C35A A37G U56A U61A | -3.7
29 | C35G G86A A120C C125U G143C | ≤ -4.2
30 | G34U G67A C76U C85A | ≤ -4.2
31 | G34U A40G U55G U56A U101A U102G G126A | ≤ -4.2
32 | C36A U55A C95G A97U U135A | ≤ -4.2
33 | C35G G84A U104G U109G G140U | ≤ -4.2
34 | C35A G65U G83C C85A G124A | ≤ -4.2
35 | C35A U101C | -3.87
36 | C35U A73G | -0.161
37 | G34A A106U A142U | ≤ -4.2
38 | C35U A52C G81A G86U C95A | ≤ -4.2
39 | C35U G83A | -0.173
40 | C35A C76U G81A C96U C103A | ≤ -4.2
41 | C35A U56C U82A | -3.49
42 | C35U C38A G83U G152A | ≤ -4.2
43 | G34U C75G G81U C87U A120U | -3.98
44 | G34C A41G C54A U135C U145G | ≤ -4.2
45 | G34U C54U U78G G83A C108G | -4.13
46 | C35G U55G G81A A98G U102A | ≤ -4.2
47 | U33G U61A | -3.72
48 | C36A C85U A89U C96G | ≤ -4.2

Row | Variant | polymerase ribozyme fitness (log ratio)
49 | G34U C95G A115G C116U G140C U151A | -4.19
50 | C35U G136A | 0.0897
51 | C36A C93U G100U | ≤ -4.2
52 | C36A C79U | ≤ -4.2
53 | G34A A41G A120U | -1.2
54 | C36A G92A U101A | ≤ -4.2
55 | C35U G84C | -1.94
56 | G34U G58C C69U A91G G128A U135C | ≤ -4.2
57 | G34A A37C C43U C125G U130A C149A | ≤ -4.2
58 | C36A C57U A66C C99A | ≤ -4.2
59 | C36A C96A G133A | ≤ -4.2
60 | C36A G42A U45G G81A C87A A137C | ≤ -4.2
61 | C35U C76G A89U A97G | ≤ -4.2
62 | G34A G67U U77C A89C U101G C116G U151C | ≤ -4.2
63 | G34U A37U U55A G136U | ≤ -4.2
64 | C36A A98U A113U C118U U148A | ≤ -4.2
65 | C35U A40G C51U G81C C87A | ≤ -4.2
66 | G34U C76U A119U | -3.19
67 | G34A U145A | -0.571
68 | C36A A121U | -3.23
69 | C35A A89U U90G C99U U144G | ≤ -4.2
70 | C35U U101G A110U A138G | ≤ -4.2
71 | C35A C43U A49U A64G C76U C96A U101G C149U | ≤ -4.2
72 | C35U G136A G143U | -3.68

Row | Variant | polymerase ribozyme fitness (log ratio)
73 | C35A G100A C125G C131G | ≤ -4.2
74 | C35U A52G A60C A121U | -3.29
75 | C36A C87G A107C | ≤ -4.2
76 | C35U A49G G88U C93G | ≤ -4.2
77 | C35A G74A U144G C149G | ≤ -4.2
78 | C36A U56A C57A A122G U127C | ≤ -4.2
79 | C35G U55G U61A C79G C93G A107G | ≤ -4.2
80 | C35U C93A A120C G126A A150U | -4
81 | C35U C96G | -0.818
82 | C35U C96U | -0.126
83 | C36A A60C G71C C79A G84A A91G C93G | ≤ -4.2
84 | G34A C57G A66U A115U U134C A142U U148G | -3.95
85 | C35U U53A | -0.557
86 | C35G G59A C85A A106G G126U | ≤ -4.2
87 | C35A A52C G67U G68C C76U A115U A120C U134C | ≤ -4.2
88 | G34U G58U G74U G81A U102A U104C | ≤ -4.2
89 | C36A A49C G71U G92A A107G U145C | ≤ -4.2
90 | C35A U44A C63U G70A G80C C87G | ≤ -4.2
91 | C35U G50C | -3.9
92 | C36A C57G U77C A119G | ≤ -4.2
93 | C35U G58C U90G U104A G126A U135A U145G | ≤ -4.2
94 | C35G C51G U56G G70A C76G C85G G133U | ≤ -4.2
95 | C35G U55G G67A G92U | ≤ -4.2
96 | C35G G84A C93G U101G | ≤ -4.2

Row | Variant | polymerase ribozyme fitness (log ratio)
97 | G34C C76A C95U A142C | ≤ -4.2
98 | G34U A41G G81A G84U C87A C93A A110G | ≤ -4.2
99 | C35A A39C C87U G92C A138C A147G | ≤ -4.2
100 | G34A C95U G136A | -0.0966
101 | C35U A47G C99G G152A | -3.48
102 | C35A A49C U56C G71A C72U G92A A115C | -3.21
103 | C35U U44A A49C G74U G80A U109G A121G | ≤ -4.2
104 | C36A C95U | -3.7
105 | C35G G83A A89C A142U | ≤ -4.2
106 | C35G U55G C85G U144A | ≤ -4.2
107 | C35A U53A U61A G62C A64G A66C C87G G152U | ≤ -4.2
108 | G34U C54U A66C A91U A121U | -4.11
109 | C35A C85A | -3.65
110 | C35U C51U C85A | -3.1
111 | C35U G42A G65C U77G C87A U101G G143A U151A | ≤ -4.2
112 | G34U G94A | -2.37
113 | C35A C95G C105G A106G G141A | ≤ -4.2
114 | G34A C57A C87U A89U G94U C96A U104A C105G A110U G126U | ≤ -4.2
115 | C35U G92A C96A | ≤ -4.2
116 | C35U C43A C95G U101C | ≤ -4.2
117 | C35A C43U C87A G128A | ≤ -4.2
118 | C36A G46C C79U G88U U151A | ≤ -4.2
119 | C35U G46C C72U G74U C96U A107G | ≤ -4.2
120 | C35G A52U U53A U56A C93G C96U C105G G152A | ≤ -4.2

Row | Variant | polymerase ribozyme fitness (log ratio)
121 | G34U C79G G92U C93G U109A G143C | ≤ -4.2
122 | C35U C43A G58U C75G C87G A121U C123U G133A | ≤ -4.2
123 | C35U A89U C95A G126A A142C | ≤ -4.2
124 | C35U G92U C116U | 0.616
125 | C35A C54G C72A C75A G84C C114U G133U A138G | ≤ -4.2
126 | G34U C51A G84C | ≤ -4.2
127 | C35G C51U C85U U139G A142U | ≤ -4.2
128 | C35U A91G | -2.83
129 | C35A G81U A97U A98U | -3.76
130 | G34U A39U C43A C85U G117A | -3.98
131 | C35U U56A U61A C63U A64G | ≤ -4.2
132 | C35U U56A C57A A97U C123U U130C | -0.0554
133 | C35U G92U | -0.627
134 | C35A A39C G83A C114A G117A C123G G140U | ≤ -4.2
135 | C35A C95G | -4.1
136 | C35U C36A U55G U127A | -3.9
137 | C35G U139C | ≤ -4.2
138 | C35U C51U G67A G92A C131G G133A U145G | ≤ -4.2
139 | C35G C105U C129A A150C | -4.14
140 | U33G U56C G81C C95U | -3.74
141 | G34C U55G G65A | ≤ -4.2
142 | G34U C85A | -3.91
143 | C36A U45A U61A C87U A97C G126A | ≤ -4.2
144 | G34C C87G U90G G92A U148A | ≤ -4.2

Row | Variant | polymerase ribozyme fitness (log ratio)
145 | C35U A41G C96A U144A | -0.485
146 | C36A C105U U127G | ≤ -4.2
147 | C35A C108G C116A A142U | ≤ -4.2
148 | C35U C57U C95G C99G A120U | -3.85
149 | C35A G94C | -2.74
150 | C35A G94A | -3.56
151 | C35A U77C G83A A106C G126A U134G | ≤ -4.2
152 | C35U G117U | 0.973
153 | G34A U56A G92C | -1.65
154 | G34A A91G | -3.57
155 | C35A C79A G83A C99A | ≤ -4.2
156 | G34C A39C U55A A60U A73U U146G | ≤ -4.2
157 | C35A A52C U77C A147C | ≤ -4.2
158 | C35U G86U C95G | -3.9
159 | C35U G71U | -3.53
160 | C35U A106U A142U | -4.15
161 | C35U G88A A115C A119G | -3.86
162 | C35A U61A C103G U104C C116U | ≤ -4.2
163 | G34A G58A U90A G94A U109G | ≤ -4.2
164 | C35A G67U G94U | ≤ -4.2
165 | C35G G50A G58A A66C C75A C87U | ≤ -4.2
166 | C35A U146A | -3.32
167 | C35U U44A C54A C87U A110U | ≤ -4.2
